Source: patent US20260176659A1, “IMPROVED METHOD FOR THE PRODUCTION OF NATURAL VANILLIN” (BASE SE, priority 2022, published 2026)
Several values for one entry are separate records, joined by “and”; a condition that tells them apart may be missing. Equal entries are not always repeated. Each block holds one molecule with its values, some of them ahead of it.

Assays:
Format in all cases: biochemical
[1] = Bioconversion of eugenol to vanillin: one-pot concurrent cascade EUGO + alkene cleavage oxygenase (5 mM scale); details: for Reaction composition after 24 hours 1a (%) / Reaction composition after 24 hours 2a (%) / Reaction composition after 24 hours 3a (%) / Reaction composition after 24 hours 5a (%): Table 8a, CO-XX FD-CFE 1 mg/mL; for Reaction composition after 24 hours 1a (%) / Reaction composition after 24 hours 2a (%) / Reaction composition after 24 hours 3a (%) / Reaction composition after 24 hours 5a (%) / Product distribution after 24 hours 2a (%) / Product distribution after 24 hours 3a (%) / Product distribution after 24 hours 5a (%): EUGO FD-CFE 1 mg/mL, catalase 10 mg/mL, eugenol 5 mM; for Product distribution after 24 hours 2a (%) / Product distribution after 24 hours 3a (%) / Product distribution after 24 hours 5a (%): Table 8b, CO-0X FD-CFE 1 mg/mL; for Conversion of 1a to 3a (%) / Reaction composition at 24 hours (%) 1a / Reaction composition at 24 hours (%) 2a / Reaction composition at 24 hours (%) 3a / Reaction composition at 24 hours (%) 5a: replicates of concurrent cascade with EUGO, 5 mM 1a, SD of four experiments; for Conversion of 1a to 3a (%): 24 h
Summary of the method: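 Cell-free extracts of EUGO (0.5 mg) and cleavage oxygenase (3 mg) were combined with catalase, 1 mM FeSO4 and 1 mM ascorbate in glycine-NaOH pH 9.0 (or Tris-HCl pH 8.0). The cascade ran with 5 mM eugenol (5% ethanol/DMSO cosolvent) at 30° C and 120 rpm overnight. Methanol-quenched samples were analysed by HPLC at 280/340 nm.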

[2] = CO-03 activity in presence of eugenol
Procedure: Stock solutions of coniferyl alcohol (250 mM), eugenol (0-2 M) were prepared in ethanol and stored at −20° C. Unless otherwise specified, the reaction mixtures (0.5 mL) were set up in 1.5 mL glass vials as follows: CO-03 (freeze-dried CFE 5-10 mg/mL) was dissolved in buffer (Glycine-NaOH 50 mM, pH 9.0 or Tris-HCl 50 mM, pH 8.0) with sodium ascorbate (1 mM), FeSO4 (1 mM), bovine liver catalase (Sigma C40, 10 mg/mL) and eugenol (0-100 mM). The final content of ethanol was 5-7% v/v. The reaction was initiated by the addition of coniferyl alcohol (5 mM), and then incubated for 4 hours at 30° C. and 120 rpm (rotary shaker). To improve the oxygenation, the vials were placed horizontally.

[3] = Spectrophotometric enzymatic assay: cleaving activity, production of vanillin from coniferyl alcohol at 349 nm; details: for Screening of putative COs: formation of 3a upon 2a cleavage (hit or inactive): spectrophotometric assay
Procedure: Stock solution 200× of coniferyl alcohol (90 mg) was prepared in ethanol (5 mL) and stored at −20° C. From this, a new stock solution 20× of coniferyl alcohol (10 mM) was freshly prepared by 1:10 dilution in Glycine-NaOH (50 mM, pH 9.0). A cuvette containing 0.750 mL Glycine-NaOH (50 mM, pH 9.0) and 0.05 mL of the substrate 20× stock was pre-warmed at 25° C. for 1.5 mins. Then, the reaction was initiated by the addition of 0.2 mL of the enzyme sample. The cleaving […] activity was measured spectrophotometrically following the production of vanillin at 349 nm (ε349=26.7 mM^−1cm^−1 experimentally determined). One unit of activity (U) is defined as the amount of enzyme required to produce 1 μmol of vanillin per min. Agilent Cary 60 UV-Vis Spectrophotometer was used for all the measurements.
Searching for alternative novel alkene cleavage oxygenases (COs) catalysing the formation of vanillin from coniferyl alcohol was performed. A set of 27 sequences and 10 COs from different branches of the phylogenetic tree were selected, named CO-02-11. Two additional enzymes were included, which are located in different clusters of the phylogenetic tree: Lignostillbene dioxygenase from Pseudomonas brassicaceraum (PbLSD, PDB: 5V2D) and aromatic dioxygenase (Ado, CO-01) from Thermothelomyces thermophilus (GenBank ID: XP_003665585). The proteins were recombinantly expressed in E. coli BL21(DE3), following the same protocol developed for IECO. […] Putative COs were screened by spectrophotometric assay, monitoring the formation of 3a upon 2a cleavage. From a set of twelve COs, four positive hits, namely CO-01, CO-03, CO-06 and CO-07 were found. Positive variants were tested in the one pot cascade and compared them with IECO In agreement with the spectrophotometric screening, all four COs converted eugenol 1a to vanillin 3a (Table 8). The first step of the cascade is efficiently performed by EUGO, and the substrate is completely consumed. […] Overall, 70±3% conversion of 1a to vanillin 3a was achieved.

[4] = cascade with EUGO, pH 8.0 and pH 9.0

B2: CO-01: aromatic dioxygenase from Thermothelomyces thermophilus (GenBank XP_003665585), SEQ ID NO: 26 (protein, listed as Thermothelomyces thermophilus)
chain: MAHIHDLAPEVSNYSSGRLTPPTPVRFPRTPVFASMNKPCRFEGDVFDLEVSGAIPPDIDGTFFRVQPDHRFPPLFEDDIHFNGDGSVTAIRISGGHADLRQRYVRTERYLLETRARRSLFGRYRNPWTDNESVRGVIRTASNTNVVFWRGALLAMKEDGPPFAMDPVTLETLGRYDFEGQILSPTFTAHPKIDPDTGEMVCFAYEAGGDGSDCSVDVAVWTVDADGKKVEECWYKAPFAGMIHDCGITKNWVVLPLTPIKMDLERMKRGGNKFAWDPSEDQWYGVVPRRGAKSDDIIWFRADNGFHGHVAGCYELPSGEIVFDLTVADGNVFFFFPPDDNITPPADGVAKRNRLSSPTVRWIFDPKAKKSAIRTEAAGDADIWVADERVKPALTWPTNGEFSRIDDRYVTKPYRHFWQAVVDPTRPYDFEKCGPPAGGLFNCLGHYTWSDQNYHHGHNTGDPSGDGRSNGSAEEATAGKFGLQDVYFAGPTMTFQEPTFIPRQGAAEGEGYLIALLNHLDELRNDVVIFEARNLGKGPLAVIHLPLKLKLGLHGNWVDSREIEAWRRRRAENGDVGPLRVAKEPLPWQKKFAAAAQNGSNGV
Reaction composition after 24 hours 1a (%) ([1]; pH 8.0): ≤1%
Reaction composition after 24 hours 2a (%) ([1]; pH 8.0): 74%
Reaction composition after 24 hours 3a (%) ([1]; pH 8.0): 9%
Reaction composition after 24 hours 5a (%) ([1]; pH 8.0): 17%
Reaction composition after 24 hours 1a (%) ([1]; pH 9.0): 51%
Reaction composition after 24 hours 2a (%) ([1]; pH 9.0): 63%
Reaction composition after 24 hours 3a (%) ([1]; pH 9.0): 13%
Reaction composition after 24 hours 5a (%) ([1]; pH 9.0): 24%
Screening of putative COs: formation of 3a upon 2a cleavage (hit or inactive) [3]: positive hits

B3: CO-07: alkene cleavage oxygenase, Thermopolyspora flexuosa, SEQ ID NO: 40 (protein, listed as Thermopolyspora flexuosa)
chain: MVWFPPPKDPFDAPMRVEADIRGVQVTQGEVPEHLDGTYYRCVSDRQWPSYVENDLELFNSDGMIISFRFHKGRVDFKSRYVRTPRFVAEEKAGRALFGAYRNPFDDDPSVAGISRGLANTNVFFHGGKLYASKEDSPPILIDPDTLETIGEYDFEGALTSRTATAHPKFDPVTGEMVFFGYEAKGPGTPDIAYYEADPSGRIIHEAWLEAPYTSMVHDWAVTQNFVIFPIIPLRSDIEWIKKGQSYFQWDPYEDVYLGVMPRKGTAKDLRWYRGSNRFASHIMGAYDDGRYVYIDTPVGQTNYFPWFPDITGAPYDPERSKGYLSRWTIDTQGESDGFTETRLSDLPGEFPRMDDRQETLPYHWGIMLLTDVPGRNAPGGGFRWLMGIDLKTGRKQIYYPGDHCTLGEAIFVPAAPDAPPGVGYVLTVVARRKEMRSDLVLLDAQRLDGEPVCTLSLPMRIRMGVHGNWVSAAELAGRTD
Reaction composition after 24 hours 1a (%) ([1]; pH 8.0): 51%
Reaction composition after 24 hours 2a (%) ([1]; pH 8.0): 61%
Reaction composition after 24 hours 3a (%) ([1]; pH 8.0): 21%
Reaction composition after 24 hours 5a (%) ([1]; pH 8.0): 18%
Reaction composition after 24 hours 1a (%) ([1]; pH 9.0): 51%
Reaction composition after 24 hours 2a (%) ([1]; pH 9.0): 50%
Reaction composition after 24 hours 3a (%) ([1]; pH 9.0): 27%
Reaction composition after 24 hours 5a (%) ([1]; pH 9.0): 23%
Screening of putative COs: formation of 3a upon 2a cleavage (hit or inactive) [3]: positive hits

Second part, led by results:

Reaction composition after 24 hours 1a (%) ([1]; pH 8.0): ≤1%
Reaction composition after 24 hours 2a (%) ([1]; pH 8.0): 14%
Reaction composition after 24 hours 3a (%) ([1]; pH 8.0): 78%
Reaction composition after 24 hours 5a (%) ([1]; pH 8.0): 8%
Reaction composition after 24 hours 1a (%) ([1]; pH 9.0): ≤1%
Reaction composition after 24 hours 2a (%) ([1]; pH 9.0): 8%
Reaction composition after 24 hours 3a (%) ([1]; pH 9.0): 81%
Reaction composition after 24 hours 5a (%) ([1]; pH 9.0): 11%
Product distribution after 24 hours 2a (%) ([1]; pH 8.0): 19.6%
Product distribution after 24 hours 3a (%) ([1]; pH 8.0): 72.0%
Product distribution after 24 hours 5a (%) ([1]; pH 8.0): 8.4%
Product distribution after 24 hours 2a (%) ([1]; pH 9.0): 11.9%
Product distribution after 24 hours 3a (%) ([1]; pH 9.0): 74.9%
Product distribution after 24 hours 5a (%) ([1]; pH 9.0): 13.2%
amount of 3a in reaction mixture [1, 4]: 78-81%
Reaction composition at 24 hours (%) 1a ([1]; pH 8.0): 1≤ %
Reaction composition at 24 hours (%) 2a ([1]; pH 8.0): 14 ± 3%
Reaction composition at 24 hours (%) 3a ([1]; pH 8.0): 80 ± 2%
Reaction composition at 24 hours (%) 5a ([1]; pH 8.0): 9 ± 1%
Reaction composition at 24 hours (%) 1a ([1]; pH 9.0): 1≤ %
Reaction composition at 24 hours (%) 2a ([1]; pH 9.0): 7 ± 2%
Reaction composition at 24 hours (%) 3a ([1]; pH 9.0): 83 ± 3%
Reaction composition at 24 hours (%) 5a ([1]; pH 9.0): 10 ± 1%
B1: CO-03: alkene cleavage oxygenase from Sphingomonadales bacterium, SEQ ID NO: 30 (protein, listed as Sphingomonadales bacterium)
chain: MSLFNRNHPVFSGGNAPVRIETDAICLETDGALPDELKGSYFRLTADPQFPPRLRPVLVEADGHVGAFHFRDNGQVDYVGKWVRTERFLRERAARRALFGTYRNRFTDEESVLDSDRTTANTAFMFHHHKFFALKEDGLPYQLDPETLDTIGRYDFGGTVSAKSLSAHPKVDSRTGELITHSGQAKGEGTPDIAYYVFDKNGTKTVERWFEAPYSSIVHDIAITQDWVVLPIMPAVVEEERLRAGGATYWWKPELGNHIAVFRRDGTGDVRWFRTKATYAFHVVNSYQDGDRLIIDVMDAEEFPMWWPRPEQVAALRSGEIKRDKFVAQLTRWTIDLAGDSDDIERELLHPWEAEMPRIDDRFAGQPYRYAVYGVDDPSFPLAHGLAELGVNHNSVGWWDHQTRTLTSWYTGPNSSVGEPVFTPRSPDAPEGDGFILAVVQRLAEQRSELVVIDTRDVAAGPIASVHAPHRLKNAIHNLWIDQEQLNEGGEKA
remaining 2 and its oxidation product 5a in the reaction mixture [1, 4]: ~20%
Conversion of 1a to 3a (%) ([1]; pH 8.0): 70 ± 3%
Conversion of 1a to 3a (%) ([1]; pH 9.0): 70 ± 3%
overall conversion of 1a to vanillin 3a in the 2-step cascade ([1]; with EUGO, 5 mM substrate concentration): 70±3% and 70%
cleaving activity retained ([2]; 50 mM 1a, increased biocatalyst amount and modified reaction buffer): 49%
Residual activity ([2]; at 50 mM 1a): ≤ 10%
Specific Activity (mU/mg of FD-CFE) ([3]; freeze-dried cell free extract incl. buffer salts, vanillin from coniferyl alcohol): 7-10 mU/mg
Screening of putative COs: formation of 3a upon 2a cleavage (hit or inactive) [3]: positive hits

Reaction composition after 24 hours 1a (%) ([1]; pH 8.0): 51%
Reaction composition after 24 hours 2a (%) ([1]; pH 8.0): 79%
Reaction composition after 24 hours 3a (%) ([1]; pH 8.0): 5%
Reaction composition after 24 hours 5a (%) ([1]; pH 8.0): 16%
Reaction composition after 24 hours 1a (%) ([1]; pH 9.0): ≤1%
Reaction composition after 24 hours 2a (%) ([1]; pH 9.0): 71%
Reaction composition after 24 hours 3a (%) ([1]; pH 9.0): 6%
Reaction composition after 24 hours 5a (%) ([1]; pH 9.0): 23%
B4: CO-06: alkene cleavage oxygenase, Novosphingobium sp., SEQ ID NO: 38 (protein, listed as Novosphingobium sp.)
chain: MNIRFPNNDFTSFEAPMRAEIDLKGLEVIQGEVPRQLSGGFFRLIGDRKWPAFVENDIFMLGEDGMASCFYFKDGQVDFKMRYVRTPRFVAEEKAGRALFGHYRNPFSDDPSVAGLSRGTANVTVLVHAGKMLALKEDSPAIELDPFTLETIGEYDWGGVVTAKAITAHPKIDPKTGELVFFGYCAAGPATRDIAYYEADAEGRIIHETWFEAPYTCMVHDIMVTENYVVFPITPLRHELEWIERNEPAFKWDPSEDVYLGVLPRKGKGEQVRWFKGPNQCHGHTVGAFDDGRFIYADNTFSKRSFFHFFPNTDGSEFNPADAMPFIKRLVIDMESNDDSFTEQQMFGYPCELPRIDTRFETMPYNFVTMNLLDVPEQERIGMGFQWVATMDINGQKPAKIYYAGHDCSIGEPQFVPRSDDAAEGDGYILTVVGKHREMRSELLILDAGDITAPPIATVALPFRLRSTGHGYWYGTRQLRGETNIIGAW
Screening of putative COs: formation of 3a upon 2a cleavage (hit or inactive) [3]: positive hits
